The supplement of paper PMC9170038

System: MS2 coat protein
Assay: apparent KD of MS2 coat protein; higher = weaker reporter binding
Settings: Eterna round: R107
Outline: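 Illumina sequencing clusters served as templates for on-chip transcription of the designed RNA switches. SNAP-549-labelled MS2 coat protein was then titrated in twofold steps from 0.7 or 1.5 nM to 3 µM, allowing 0.8–1.5 h per step at first and 10–20 min per step later. The buffer held 100 mM Tris-HCl pH 7.5, 80 mM KCl and 4 mM MgCl2, without or with constant ligand. Apparent KD is the median per design of normalised cluster binding-curve fits.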

[1] = input ligand: theophylline 20 uM
[2] = input ligand: theophylline 2 mM
[3] = input ligand: tryptophan 2.4 mM

Sequence | apparent KD of MS2 coat protein (input ligand: arginine 13.2 mM) | apparent KD of MS2 coat protein [1] | apparent KD of MS2 coat protein [2] | apparent KD of MS2 coat protein [3] | apparent KD of MS2 coat protein (input ligand: none)
UUUAACAAGAACGUCCUGAGUGACAAGCUACGAGGACCGGUACGGCCGCCACUCGUACCAAAACAUGAGGAUCACCCAUGUUAAA [theeternabot_exclusion_MS2_Trp_A_44] | 13.4 nM | 19.3 nM | 21.1 nM | – | –
UGGAGUAGGACGGCCGCCACUAUACAAUGUGUAUACAUGAGGAUCACCCAUGUAAUCCUCGGAGAUAGGACCGGGUCAAGUUGUG [X-tryptB-ms2@35] | 39.4 nM | 85.4 nM | 59.8 nM | – | –
UACUUGCUGACGGCCGCCACUAGAACAUGAGGAUCACCCAUGUACCUGGUCCUUCAUGGGUGGACUAGGACCGGGUCAGCAAGAU [(Trp1)-(Ms2)-(T)'-(M)'-(Trp2)_Design4] | 186 nM | 418 nM | 517 nM | – | –
AGCGCGGUGAUGGUAGCCGGACGCUAGGUACGAGGACCGGUACGGCCGCCACUCGGAGUCCUACGACAUGAGGAUCACCCAUGUA [Same State Trp A GF16] | 61.2 nM | 106 nM | 111 nM | – | –
GAAACGUAGGUGGAGCGGUGAAAUGGCGAUACCAGCGUGGAAACAUGCCCUUGGCAGCGUUAGAACAUGAGGAUCACCCAUGUUU [#22 Exclusion-TheophyllineA] | 12.9 nM | 15.4 nM | – | 14.9 nM | –
ACGUCCAGGUUAAUCGUGGGCAUGGUCGAUACCAGUAUUUUAAUCUACCCUUGGCAGCGACAUGAGGAUCACCCAUGUGCGAUGA [XTheo A #16] | 13.8 nM | 17.9 nM | 40.1 nM | 16.9 nM | 16.4 nM
GGAUAGGACACGGCCGCCACUUGCUAGGAUACUAGCAACAUUUCCUCUCAUGAGGAUCACCCAUGAAGGACCGGGUGUCCUAUCG | 21.3 nM | 30.6 nM | 23.3 nM | 27.3 nM | –
UUACAUGAGGAUCACCCAUGUCAUACAGAAGGAGCGUCACAUAAGACAGGUAGGUCGCUGUUAUUUCAUACUGUUAUAUCCUCUA [JR_Nu_ExcArginiA_Sub029] | 30.1 nM | 56.2 nM | 47.1 nM | 40 nM | 40.3 nM
UGACAUUGCUCAGAUACCAGACAUGAGCAUCAGCCAUGUACCAAGAGUACAUAUUAAAAUGUCCCUUGGCAGCUGAGCAAUGUCU [Mod of Eli's TheoBX5 #AlternateMS2 v1] | 15.2 nM | 18.7 nM | 166 nM | 11.8 nM | 11 nM
AUACAUGAGGAUCACCCAUGUAUAGUUGAAGGAGCGACCGGUGGGUCAGGUAGGUCGCAGCGCAUGGCGUCCACGCGUGUAUGCC [#1 Exclusion - Arginine A Attempt #30 (Inspired by Pi)] | 10.7 nM | 16.4 nM | 11.3 nM | 11.1 nM | 10.7 nM
UCAUACAUGAGGAUCACCCAUGUUCGUGGGCGAGGACCGGUACGGCCGCCACUCGUACUAACGGUUUCUUAAACUUCCUUUCGAG [theeternabot_sameState_MS2_Trp_A_49] | 28.3 nM | 41.2 nM | 40.4 nM | – | –
GUCCUAGCGAUCGCUCGCUAGGACGCGGAUACCAGCGAGGUCCAUCGCCCUUGGCAGCCGAACAUGAGGAUCACCCAUGUCGGUA [#1 Same State - Theophylline A Attempt #18 (HarryS)] | 8.4 nM | 14.2 nM | – | 10.2 nM | –
ACACAAUACAUGAGGAUCACCCAUGUAAAACGAGGACCGGUACGGCCGCCACUCGAAUACUGUAAUCCUCGGAAUAUUAAGUGAA [JR_ExcTryptA_Sub002] | 28.7 nM | 57.1 nM | 61.6 nM | – | –
GCACUACAUGAGGAUCACCCAUGUGCAGAUACCAGAGGUGUAUGCCUCCCUUGGCAGCUGCGUCGCUCUGGAAACUUAUUGGUUU [Same State Theophylline A GF17] | 18.3 nM | 26.6 nM | – | 18.6 nM | –
AGCGCUGUGCAUGAUACCAGCUACAUGAGGAUCACCCAUGUGCGUCAGAAAUGACUGUGUAGCCCUUGGCAGCAUAAAGCAUGUA [Exclusion - Theophylline B (Freestyle 8)] | 19.7 nM | 26.6 nM | – | 19.6 nM | –
GAACAUAAGGAUACUAUAAUAAGUACAGAAGGAGCGAGCGGAAGCUCAGGUAGGUCGCUGGGUAACAUGAGGAUCACCCAUGUUG [SSArg A #14 Road to perfection1] | 23.1 nM | 37 nM | 37 nM | 15.6 nM | 21.4 nM
UUUAAGAACCGAAGGAGCGCCAGAAAUAAGAACGCUACAUGAGGAUCACCCAUGUAAUAAGGGCAGGUAGGUCGCGGAAUUUAAA [last] | 17.9 nM | 33.4 nM | 24.7 nM | 21.4 nM | 21.2 nM
UCAAAUGCGGCGGCCGCCACUCGCGGAUAACGAUAGCUUAACAUGAGGAUCACCCAUGUGUCAUGGAGGACCGGGCCCAUAACAU [ttmullin] | 23.4 nM | 35.1 nM | 37.1 nM | 23.9 nM | 27.2 nM

Sequence | apparent KD of MS2 coat protein (input ligand: arginine 13.2 mM) | apparent KD of MS2 coat protein [1] | apparent KD of MS2 coat protein [2] | apparent KD of MS2 coat protein [3] | apparent KD of MS2 coat protein (input ligand: none)
UAAUAAUUGUGAUUCUCAGGUCCUCGAUAACGAGGACCGGUACGGCCGCCACUCGAACAUGAGGAUCACCCAUGUAUGAGGACCU [M'-T'-T-MS2-T'' - Design 3] | 13.8 nM | 21 nM | 19.6 nM | 13.8 nM | 15.9 nM
ACCGCAGGUCCUGAUACCAGAGACAUGAGGAUCACCCAUGUCCGAUCGUCCUGCCUCAGGCUCCCUUGGCAGCAGGGCUUGUCCU [Exclusion Theophylline B GF8] | 14.1 nM | 20.6 nM | – | 14.8 nM | –
UCAGUGGGUUCGGCCGCCACUUGAGUGAUGGUGCCUCAAUAAGUCUACAUGAGGAUCACCCAUGUAAGGACCGGGAAUUUUAUGG [theeternabot_exclusion_MS2_Trp_B_19] | 33.3 nM | 59.1 nM | 43.2 nM | – | –
UACAUGAGGAUCACCCAUGUGUAGAGGGAUACCAGUGACAGUAAGCGCCCUUGGCAGCCCGUGAACAAUGGGUGAGCAAAAUAGU [#17 Exclusion-TheophyllineA] | 41.4 nM | 233 nM | 25.6 nM | 44.7 nM | 19.4 nM
UCACAUGAGGAUCACCCAUGUGUCAGAGAAGGAGCGGCCGCAAGGCCAGGUAGGUCGCUCGGGUAUUGUGAGGUUCACCCGUGUG [#1 Exclusion - Arginine A Attempt #12 (Inspired by cyborg)] | 26.7 nM | 57.3 nM | 44.4 nM | 34.6 nM | 35.8 nM
AAGGUGAUCCGUGAUACCAGCUCAACAUGAGGAUCACCCAUGUACGGGACGAAAGUCCCGGGCCCUUGGCAGCACGGUUGCCAAG [SSTheo B #20] | 53.2 nM | 239 nM | 93.7 nM | 109 nM | 89.8 nM
CGUUAAGAAUCGGCCGCCACUCCAUACGUGUGAAUCGCGGAUCGACAUGAGGAUCACCCAUGUCGGAGGACCGGGAUCCUCUUUC [theeternabot_sameState_MS2_Trp_B_12] | 28.2 nM | 49.2 nM | 48 nM | – | –
AGCGAUAUGCAUGAUACCAGCUACAUGAGGAUCACCCAUGUGCGUCAGAAAUGACUGUGUAGCCCUUGGCAGCAUAGAGCAUGUA [Exclusion - Theophylline B (Freestyle 11)] | 35.2 nM | 46.2 nM | – | 38.4 nM | –
CCCAGUUAUAACAAAGGAAUUAUACUCGAAGGAGCGUCAUAGUAGGCAGGUAGGUCGCGAGACAUGAGGAUCACCCAUGUAGAGA [k,lmullin] | 32.1 nM | 56.3 nM | 49.4 nM | 50 nM | 42.3 nM
ACAUCUUGUACGGCCGCCACUAACAGAUUCAGCGUCGGAGCCAACUACAUGAGGAUCACCCAUGUUAGGACCGGGUACUGUCCAC [theeternabot_exclusion_MS2_Trp_B_47] | 15.8 nM | 20.7 nM | 21 nM | – | –
UUGACAUGAGGAUCACCCAUGUCAAAGGCACGAGGACCGGUACGGCCGCCACUCGUGGUCUAUGGCUGGUGGACUCGUGUCUCGG [Soisusdira] | 12.2 nM | 16 nM | 16.8 nM | 10.8 nM | 12 nM
GAUACUAUGAAAGUAGUAUCUACGUGUUGACGAGGACCGGUACGGCCGCCACUCGACAUGAGGAUCACCCAUGUAUAGAAUAUGU [TrypA_2] | 25.1 nM | 39.2 nM | 31.9 nM | – | –
ACUUCGCAUAGGAAAACUAUGUGAAGAAAUCGAGGACCGGUACGGCCGCCACUCGUCCUCAACAUGAGGAUCACCCAUGUAAUAA [Mat - Exclusion - Trytophan A - D5] | 21 nM | 24.3 nM | 23.9 nM | – | –
UCGCUCUGGGUGAAAUCCGGAGAUGUGGAAGGAGCGCUCGAAAGAGCAGGUAGGUCGCCAACGGACAUGAGGAUCACCCAUGUAC [Same State - Arginine A (Freestyle 20)] | 31 nM | 50 nM | 75.3 nM | 38.3 nM | 29.6 nM
UGUAACAUGAGGAUCACCCAUGUAAGUGAUACCAGAUAAGUAGUAGUCCCUUGGCAGCAUAUUGGGCGAGUGUAUAGUCUAUACG [Same State - Theophylline A (Freestyle 7)] | 39.9 nM | 69.8 nM | – | 49.7 nM | –
CAUUUUAGAAAACUAAAAUGAGUGGGUGAACGAGGACCGGUACGGCCGCCACUCGGACAUGAGGAUCACCCAUGUCCAUGUGAAA [AstrosExyTryA#22] | 22.8 nM | 15 nM | 14.4 nM | 37.8 nM | 14.1 nM
AAUUUUAACGGAAGGAGCGUCAAUUAAUACAAACAUGAGGAUCACCCAUGUCAAUACAUGAGACAGGUAGGUCGCCGUUAUUUGA [JR_AAArginiB_Sub024] | 23.9 nM | 28 nM | 21.7 nM | 23.3 nM | 22.1 nM
AACAUGAGGAUCACCCAUGUAUGUUCCGAAGGAGCGCCACAUGAGGCAGGUAGGUCGCGGGUACAUGAGGAUCACCCAUGUGUCA [Exclusion Arginine A 3] | 56.5 nM | 170 nM | 128 nM | 174 nM | 113 nM
